Measured values: article PMC6141588, “Electron microscopy of Chaetomium pom152 shows the assembly of ten-bead string” (Cell Discovery, 2018)

Target: the molecule itself
Assay: cryo-EM micrographs of single particles; purified Ctpom152^FL, much of the detergent removed before rapid freezing; longer strings in up to an estimated 10% of over 2000 images

B1: full-length pom152 of Chaetomium thermophilum (Ctpom152^FL) (natural protein, UniProt G0SB44 1-1270, looked up)
chain: MSDAPAVGAFPQTPVAARRGPARPSDSTTSTTIKRTSPLPLAPQAGRQATNISPVIPLHILDAPTQRFYAFAFYLALTAWKLYDWTQVLEEDTESFLLFLKWIAIDCVFLFGLPELRIPWLELSQPFVMVAFAIHAMFDWILMFNIGFPWQSWVIGLLKVFYDREIAISEHNVKLSSILQNSSLIMGRQIINILPEGSAILNPELQPFCLGGDRKTANIPIFFNSTIPVEVELIRTDFETGQQESIKLSKSQLRDIERRAKRESQDGDTVQSIVQFDFPVKKTGAYRLGRVLDEYKLEVQRRNPLTFVVSCPKAWVGPALSAHRCVGDLSDLSMMVEGTPPLKIKYSRMINGKDHSFHFQSLQPEGFVSPLSGLRSNNWGYDEDDISWARAQKVPVGLNESMHSSGDWQYSIDEVQDGFGNIIKYDSLADDPDGKPKPKHLTQSFVVKKRPVIRLEGCDLRHPLKVAKGKSKNLPVSYGLSGGSREDSTYQIAWQFSPIDTLTESGDHGDVVTIGTYTAKNNRDRPTISAPGLYTLKSVSASQCEGEIQEPSSCLLLNPLEPRLSLRHEEIPDTCAGNSIGLRVDLDLIGTPPFIVRYDVISNGERRSERVSIPGLRYQLDLVPRIAGHHKYIFTHVGDSIYDGQKLSGPEYVLEQDVKPAAAALIQHSTGKMSSCLGDQVTVDILLLGDPPFTLEWELIHDGKRKQFKVPNIQENSYQIKTAPLTTGGEYTLGLTSVQDKRGCRNFLQEELKISVRRQSPRAAFGQVDGKRKILAVEGSSVKLPLRLTGEGPWKVYYANLHDGSPDKPKVQEKIIKSDNGFLEVRGRGAFAITDVWDSQCHGVVDPKASRFDVDWFPRPELSVALTHGVSKTETGFQLQDVCEGDVSGFEVALKGTPPFTVEYEVRHHPLQGSSSLSKKKIEGVVGKEAIQADTSKAGTYTYKFTALEDDLYSSNRGFQPIIVKQNVNRKPTASFVKPGQTFKYCKSEQDNEDGIPITLTGVPPFFLEVEIKHQSAAVPEIYRTPAIDSHSYELKIPRHHLRLGTQHIRIRDIRDGSGCHSTSGILSGPSVQVQLFEAPTIYPLETRTDYCVGERISYTLSGQAPFEVWYTFNGVELKAKSPNTNFRRIAESPGEFTITSVSDKASECRAPVSITKTIHPLPAVRISKGKSVRVDIHEGGEVDILFEFFGTPPFEFTYTRSTNARKGQKSQVLETRHDISHEHSKVIKASQEGTYEVVAIKDKYCSFSTQAVVGLEGGKKDKTKKLKVY
notes: also called FL Ctpom152; full-length Ctpom152; source: insect cells, purified with detergent extract; much of the detergent removed before cryo-EM
B1: binds.
